Results from US5869271A, “G-beta-gamma regulated phosphatidylinositol-3' kinase” (Onyx Pharmaceuticals, priority 1997, dated 1999).

Target: free p120 PI3K catalytic subunit (Sus scrofa, UniProt O02697)
Assay: PI3K assay on free recombinant p120 (Sf9-derived)
Format: biochemical, porcine
Description: Assays contained either 7 nM p101/p120 or 36 nM p120 alone (final concentrations) which were incubated with various reagents; 10 mM NaF and 30 μM AlCl3 (A/F) ; 1 μM Gβγ-subunits (βγ); 2 μM Gα-GDP; 100 nM wortmannin (W) or 50 μM tyrosine phosphorylated peptide (PY) for a total of 15 minutes (at 0° C.) prior to starting the assays by adding [γ^32 P]-ATP; [^32 P]-incorporated into [^32 P]-PtdIns(3,4,5) P3 was quantified. The data shown are means (n=2).
Purified aliquots of Sf9 -derived or pig neutrophil cytosol-derived PI3K were diluted in ice-cold 0.12M NaCl, 25 mM HEPES, 1 mM EGTA, 1 mM DTT, 1 mg-ml^-1 BSA, 1% betaine, 0.02%, w/v, Tween-20, pH 7.4, 0° C. to an appropriate extent, then 5 μl aliquots were stored on ice until assayed. […] 30 μl of a mixture of phospholipids with or without Gβγs and/or Gαs (either GDP-bound or activated) was added to the 5 μl fractions, or 10 μl of beads, and mixed. After 10 minutes on ice, 5-10 μl of last wash buffer, supplemented with MgCl2 to give a final concentration in the extant assay volume of 3.5 mM, was added and mixed. Six minutes later, 5 μl of last wash buffer was added (to give a final assay volume of 50 μl) containing [^32 ]-ATP (typically 10 μCi assay^-1, Amersham, PB10168) and 3.5 mM MgCl2, tubes were mixed and transferred to a 30° C. water bath. […]

free p120 PI3K catalytic subunit, sequence (O02697 whole entry): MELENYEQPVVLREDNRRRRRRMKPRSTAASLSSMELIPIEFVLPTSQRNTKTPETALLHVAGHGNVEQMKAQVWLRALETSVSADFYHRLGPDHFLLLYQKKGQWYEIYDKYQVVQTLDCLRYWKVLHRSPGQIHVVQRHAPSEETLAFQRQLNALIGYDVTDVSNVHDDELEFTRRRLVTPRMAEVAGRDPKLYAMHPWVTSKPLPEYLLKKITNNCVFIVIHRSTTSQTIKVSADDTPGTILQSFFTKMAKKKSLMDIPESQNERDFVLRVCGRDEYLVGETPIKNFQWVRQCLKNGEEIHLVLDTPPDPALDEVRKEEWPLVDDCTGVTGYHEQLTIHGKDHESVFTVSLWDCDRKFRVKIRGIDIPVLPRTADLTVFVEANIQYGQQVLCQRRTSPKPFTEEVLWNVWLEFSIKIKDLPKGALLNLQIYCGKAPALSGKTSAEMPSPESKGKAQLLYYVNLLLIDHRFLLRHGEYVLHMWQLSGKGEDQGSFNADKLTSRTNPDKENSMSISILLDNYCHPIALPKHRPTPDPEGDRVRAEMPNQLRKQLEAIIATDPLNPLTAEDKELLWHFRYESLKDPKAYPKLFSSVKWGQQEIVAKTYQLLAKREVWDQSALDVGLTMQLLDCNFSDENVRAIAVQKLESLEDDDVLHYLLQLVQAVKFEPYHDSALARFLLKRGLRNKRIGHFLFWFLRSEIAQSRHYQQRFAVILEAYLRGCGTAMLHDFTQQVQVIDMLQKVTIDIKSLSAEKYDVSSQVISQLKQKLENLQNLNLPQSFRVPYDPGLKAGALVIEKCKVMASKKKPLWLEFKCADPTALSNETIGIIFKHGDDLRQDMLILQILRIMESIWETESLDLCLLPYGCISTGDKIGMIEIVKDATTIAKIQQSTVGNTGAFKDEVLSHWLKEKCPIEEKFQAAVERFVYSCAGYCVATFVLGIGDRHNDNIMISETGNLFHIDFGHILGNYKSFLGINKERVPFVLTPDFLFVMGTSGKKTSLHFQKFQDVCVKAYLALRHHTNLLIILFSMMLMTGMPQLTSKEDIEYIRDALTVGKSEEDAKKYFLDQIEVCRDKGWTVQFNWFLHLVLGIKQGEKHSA

B1: p120: catalytic subunit of the G protein-regulated PI3K; the b332 result is for the form after complete thrombin cleavage (protein)
chain: MELENYEQPVVLREDNRRRRRRMKPRSTAASLSSMELIPIEFVLATSQRNTKTPETALLHVAGHGNVEKMKAQVLLRALETSVSWDFYHRFGPDHFLLVFQKKGEWYEIYDKYQVVQTLDCLRYWEVLHRSPGQIHVVQRHAPSEETLAFQRQLNALIGYDVTDVSNVHDDELEFTRRRLVTPRMAEVAGRDPKLYAMHPWVTSKPLPEYLLKKITNNCVFIVIHRSTTSQTIKVSADDTPGTILQSFFTKMAKKKSLMDIPESQNERDFVLRVCGRDEYLVGETPIKNFQWVRQCLKNGEEIHLVLDTPPDPALDEVRKEEWPLVDDCTGVTGYHEQLTIHGKDHESVFTVSLWDCDRKFRVKIRGIDIPVLPRTADLTVFVEANIQYGQQVLCQRRTSPKPFTEEVLWNVWLEFSIKIKDLPKGALLNLQIYCGKAPALSGKTSAEMPSPESKGKAQLLYYVNLLLIDHRFLLRHGEYVLHMWQLSGKGEDQGSFNADKLTSGTNPDKEDSMSISILLDNYCHPIALPKHRPTPDPEGDRVRAEMPNQLRKQLEAIIATDPLNPLTAEDKELLWHFRYESLKDPKAYPKLFSSVKWGQQEIVAKTYQLLAKREVWDQSALDVGLTMQLLDCNFSDENVRAIAVQKLESLEDDDVLHYLLQLVQAVKFEPYHDSALARFLLKRGLRNKRIGHFLFWFLRSEIAQSRHYQQRFAVILEAYLRGCGTAMLHDFTQQVQVIDMLQKVTIDIKSLSAEKYDVSSQVISQLKQKLENLQNLNLPQSFRVPYDPGLKAGALVIEKCKVMASKKKPLWLEFKCADPTALSNETIGIIFKHGDDLRQDMLILQILRIMESIWETESLDLCLLPYGCISTGDKIGMIEIVKDATTIAKIQQSTVGNTGAFKDEVLSHWLKEKCPIEEKFQAAVERFVYSCAGYCVATFVLGIGDRHNDNIMISETGNLFHIDFGHILGNYKSFLGINKERVPFVLTPDFLFVMGTSGKKTSLHFQKFQDVCVKAYLALRHHTNLLIILFSMMLMTGMPQLTSKEDIEYIRDALTVGKSEEDAKKYFLDQIEVCRDKGWTVQFNWFLHLVLGIKQGEKHPA
- reduction of p120 PI3K catalytic activity by removal of about 40 amino terminal residues (thrombin cleavage): 20-30%
